Among the data in article PMC9061753, “Mre11-Rad50 oligomerization promotes DNA double-strand break repair” (Nature Communications, 2022) are Kd values, retold here.

The target in data set [1] is T1, Mre11-Rad50 (MRwt) (S. cerevisiae, UniProt P32829;P12753 1-692;1-1312). Put plainly: EMSA; ATPgS, 5 mM Mg2+, 30 mM NaCl; mean of the 2 visible of 3 replicates (4.948, 4.099); apparent; Oligo EMSA: 25 mM Tris acetate pH 7.5, 1 mM DTT, 0.25 mg/ml BSA, 5 mM Mg acetate, 1 mM ATPgS, 30 mM NaCl, 30 C 15 min, 100 nM bp DNA; plasmid EMSA: 80 mM KCl, plus 1 mM MnCl2, 30 C 1 h; mass photometry 25 mM KCl. Particulars: protein: recombinant; tags: Mre11-6xHis; Rad50 untagged; chain copies: 2;2; label: 3'-32P on top strand; 1-nt 5' overhangs as printed.
T1 sequence (P32829 whole entry, chain 1 of 2): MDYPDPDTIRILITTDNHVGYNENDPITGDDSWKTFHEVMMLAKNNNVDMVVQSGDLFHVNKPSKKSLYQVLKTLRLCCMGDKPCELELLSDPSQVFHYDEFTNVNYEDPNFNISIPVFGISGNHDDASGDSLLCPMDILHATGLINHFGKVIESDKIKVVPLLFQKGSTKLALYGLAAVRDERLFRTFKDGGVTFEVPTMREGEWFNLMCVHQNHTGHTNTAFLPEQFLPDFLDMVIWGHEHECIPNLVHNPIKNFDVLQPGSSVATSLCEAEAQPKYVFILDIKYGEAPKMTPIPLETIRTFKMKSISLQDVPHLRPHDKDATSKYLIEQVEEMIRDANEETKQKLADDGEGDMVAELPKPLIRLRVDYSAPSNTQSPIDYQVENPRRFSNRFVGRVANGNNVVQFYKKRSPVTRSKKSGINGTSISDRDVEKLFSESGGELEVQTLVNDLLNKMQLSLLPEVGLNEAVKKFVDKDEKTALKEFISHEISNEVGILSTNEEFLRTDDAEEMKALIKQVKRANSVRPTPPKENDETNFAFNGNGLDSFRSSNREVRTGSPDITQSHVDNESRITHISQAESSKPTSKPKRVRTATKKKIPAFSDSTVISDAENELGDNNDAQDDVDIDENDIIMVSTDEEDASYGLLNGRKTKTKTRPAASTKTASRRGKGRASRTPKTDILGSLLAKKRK
T1 sequence (P12753 whole entry, chain 2 of 2): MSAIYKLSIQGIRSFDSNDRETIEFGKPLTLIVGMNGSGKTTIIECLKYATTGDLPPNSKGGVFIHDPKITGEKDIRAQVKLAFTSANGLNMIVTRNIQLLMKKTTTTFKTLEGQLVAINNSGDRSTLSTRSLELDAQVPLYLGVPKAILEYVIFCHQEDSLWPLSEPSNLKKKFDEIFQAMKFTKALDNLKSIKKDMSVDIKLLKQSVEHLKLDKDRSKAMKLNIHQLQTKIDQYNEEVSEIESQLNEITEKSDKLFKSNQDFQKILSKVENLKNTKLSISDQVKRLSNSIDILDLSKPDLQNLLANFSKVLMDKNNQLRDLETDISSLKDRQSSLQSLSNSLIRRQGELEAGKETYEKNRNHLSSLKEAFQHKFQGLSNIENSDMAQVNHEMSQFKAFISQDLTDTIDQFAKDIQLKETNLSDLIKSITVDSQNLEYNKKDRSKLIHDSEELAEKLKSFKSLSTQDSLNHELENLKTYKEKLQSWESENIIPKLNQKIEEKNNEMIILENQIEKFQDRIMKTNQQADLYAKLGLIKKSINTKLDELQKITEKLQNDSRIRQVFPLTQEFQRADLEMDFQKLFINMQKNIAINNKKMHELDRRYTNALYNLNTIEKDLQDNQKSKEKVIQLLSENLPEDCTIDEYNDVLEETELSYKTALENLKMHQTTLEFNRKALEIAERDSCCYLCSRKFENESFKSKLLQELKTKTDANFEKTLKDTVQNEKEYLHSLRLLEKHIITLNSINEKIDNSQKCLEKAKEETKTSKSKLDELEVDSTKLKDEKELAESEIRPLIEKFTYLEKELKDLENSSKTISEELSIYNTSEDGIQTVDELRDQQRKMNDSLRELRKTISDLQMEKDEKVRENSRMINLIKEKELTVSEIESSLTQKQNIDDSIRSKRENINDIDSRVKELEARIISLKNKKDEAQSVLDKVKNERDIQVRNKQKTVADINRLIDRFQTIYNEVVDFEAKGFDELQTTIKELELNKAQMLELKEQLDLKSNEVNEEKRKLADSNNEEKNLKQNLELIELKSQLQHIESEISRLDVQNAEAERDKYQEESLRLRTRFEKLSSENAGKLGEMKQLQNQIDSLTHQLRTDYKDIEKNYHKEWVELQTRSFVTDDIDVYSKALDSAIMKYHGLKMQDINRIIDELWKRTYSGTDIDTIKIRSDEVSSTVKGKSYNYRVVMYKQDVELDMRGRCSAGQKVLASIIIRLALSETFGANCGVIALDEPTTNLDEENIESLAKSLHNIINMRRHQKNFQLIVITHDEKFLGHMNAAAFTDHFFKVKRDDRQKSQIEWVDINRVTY

For data set [2], the target named is T1, Mre11-Rad50 (MRwt). Briefly: EMSA; ATPgS, 5 mM Mg2+, 30 mM NaCl; mean of the 2 visible of 3 replicates (6.248, 7.406); apparent; Oligo EMSA: 25 mM Tris acetate pH 7.5, 1 mM DTT, 0.25 mg/ml BSA, 5 mM Mg acetate, 1 mM ATPgS, 30 mM NaCl, 30 C 15 min, 100 nM bp DNA; plasmid EMSA: 80 mM KCl, plus 1 mM MnCl2, 30 C 1 h; mass photometry 25 mM KCl. Particulars: protein: recombinant; tags: Mre11-6xHis; Rad50 untagged; chain copies: 2;2; label: 3'-32P on BIO100C; blunt before 3' labeling. Background: Mobility shift assays separate free from complexed probe on a gel.

B1: 197 bp EMSA (197mer) (dsDNA)
DNA 1: GCTTCGTATGTTTCTCCTGCTTATCACCTTCTTGAAGGCTTCCCATTCATTCAGGAACCGCCTTCTGGTGATTTGCAAGAACGCGTACTTATTCGCCACCATGATTATGACCAGTGTTTCCAGTCCGTTCAGTTGTTGCAGTGGAATAGTCAGGTTAAATTTAATGTGACCGTTTATCGCAATCTGCCGACCACTCG
DNA 2: GCGAGTGGTCGGCAGATTGCGATAAACGGTCACATTAAATTTAACCTGACTATTCCACTGCAACAACTGAACGGACTGGAAACACTGGTCATAATCATGGTGGCGAATAAGTACGCGTTCTTGCAAATCACCAGAAGGCGGTTCCTGAATGAATGGGAAGCCTTCAAGAAGGTGATAAGCAGGAGAAACATACGAAG
With B1, the Kd with Mre11-Rad50 (MRwt) [1] is approximately 4.52 nM.

B2: 100 bp EMSA (BIO100C/BIO100) (dsDNA)
DNA 1: GATGCAGGAGGCTGCTACGACCATGGCAGAAGATTATGAGGTGGAGTACGCGCCCGGGGAGCCCAAGGGCACGCCCTGGCACCCGCACCGCGGCACTTAC
DNA 2: GTAAGTGCCGCGGTGCGGGTGCCAGGGCGTGCCCTTGGGCTCCCCGGGCGCGTACTCCACCTCATAATCTTCTGCCATGGTCGTAGCAGCCTCCTGCATC
modifications: biotin position marked in table
Turning to B2, the Kd with Mre11-Rad50 (MRwt) [2] was approximately 6.83 nM.
